Patent US20150056222A1

Target: mouse PRLR on HEK293 cells (mouse) (UniProt Q08501)
Test: FACS, HEK293/mPRLR cells

mouse PRLR on HEK293 cells (mouse), sequence (Q08501 20-608): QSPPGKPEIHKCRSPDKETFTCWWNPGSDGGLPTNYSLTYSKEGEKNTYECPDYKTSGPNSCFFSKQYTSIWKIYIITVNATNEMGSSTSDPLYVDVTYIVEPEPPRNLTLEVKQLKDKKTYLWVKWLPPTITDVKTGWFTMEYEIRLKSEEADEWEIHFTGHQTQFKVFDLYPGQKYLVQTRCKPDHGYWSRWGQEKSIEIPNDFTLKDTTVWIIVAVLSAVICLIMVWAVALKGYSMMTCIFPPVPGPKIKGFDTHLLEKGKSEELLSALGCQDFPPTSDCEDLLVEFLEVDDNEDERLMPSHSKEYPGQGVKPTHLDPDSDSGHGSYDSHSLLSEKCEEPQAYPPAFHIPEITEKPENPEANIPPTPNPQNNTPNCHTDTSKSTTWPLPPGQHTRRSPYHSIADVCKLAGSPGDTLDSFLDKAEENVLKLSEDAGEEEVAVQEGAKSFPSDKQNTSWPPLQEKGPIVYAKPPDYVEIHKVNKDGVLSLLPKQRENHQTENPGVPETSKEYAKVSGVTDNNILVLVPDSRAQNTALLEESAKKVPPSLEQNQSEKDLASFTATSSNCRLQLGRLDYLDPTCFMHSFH

FACS Cell Binding (Fold Above Background) (fold above background): 1
Substance: Isotype Ctrl I (antibody)
